The test addresses MERS CoV spike protein (MERS CoV) (UniProt K9N5Q8). Kind of test: cell-based or functional assay.

Chain of MERS CoV spike protein (MERS CoV) (K9N5Q8 18-1353): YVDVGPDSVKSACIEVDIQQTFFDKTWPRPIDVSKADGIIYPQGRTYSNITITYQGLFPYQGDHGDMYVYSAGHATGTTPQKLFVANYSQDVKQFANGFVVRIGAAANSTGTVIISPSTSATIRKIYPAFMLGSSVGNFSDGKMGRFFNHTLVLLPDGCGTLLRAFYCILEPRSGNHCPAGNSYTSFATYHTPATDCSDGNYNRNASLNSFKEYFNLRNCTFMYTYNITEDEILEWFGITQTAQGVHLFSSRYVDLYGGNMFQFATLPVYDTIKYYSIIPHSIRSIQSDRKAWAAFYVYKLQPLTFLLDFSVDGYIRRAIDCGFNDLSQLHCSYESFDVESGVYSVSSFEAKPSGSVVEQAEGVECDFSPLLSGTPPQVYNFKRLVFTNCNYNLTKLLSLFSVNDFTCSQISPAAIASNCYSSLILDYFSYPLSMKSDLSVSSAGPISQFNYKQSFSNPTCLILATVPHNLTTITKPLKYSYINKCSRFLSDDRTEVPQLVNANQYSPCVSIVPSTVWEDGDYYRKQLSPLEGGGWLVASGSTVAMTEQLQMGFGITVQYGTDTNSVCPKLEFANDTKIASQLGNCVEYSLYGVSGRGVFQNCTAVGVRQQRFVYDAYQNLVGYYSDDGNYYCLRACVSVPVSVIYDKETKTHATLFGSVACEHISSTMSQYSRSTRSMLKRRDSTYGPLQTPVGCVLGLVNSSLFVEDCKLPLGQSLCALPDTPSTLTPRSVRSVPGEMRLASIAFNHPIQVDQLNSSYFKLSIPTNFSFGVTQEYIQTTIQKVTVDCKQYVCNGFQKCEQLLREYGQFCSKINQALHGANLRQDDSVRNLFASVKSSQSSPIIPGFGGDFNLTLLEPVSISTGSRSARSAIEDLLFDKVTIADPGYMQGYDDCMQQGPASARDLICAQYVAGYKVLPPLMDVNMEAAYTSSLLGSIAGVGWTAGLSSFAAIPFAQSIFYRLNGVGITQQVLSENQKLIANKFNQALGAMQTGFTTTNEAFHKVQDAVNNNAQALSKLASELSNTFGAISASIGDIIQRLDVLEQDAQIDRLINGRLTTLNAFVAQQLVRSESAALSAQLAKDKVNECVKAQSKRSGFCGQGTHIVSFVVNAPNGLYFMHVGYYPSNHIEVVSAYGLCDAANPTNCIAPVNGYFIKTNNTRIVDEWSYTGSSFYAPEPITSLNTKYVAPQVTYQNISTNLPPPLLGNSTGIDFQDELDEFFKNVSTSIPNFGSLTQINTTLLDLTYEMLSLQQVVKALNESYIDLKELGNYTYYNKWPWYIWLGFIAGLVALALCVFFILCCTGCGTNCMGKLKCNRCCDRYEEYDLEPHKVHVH

B1: αNTD:7D10/VM (scFv)
scFv: DIVMTQSPASLTVSLGQRATISCRASKSVSASGYNYLHWYQQRPGQPPKLLIYLAFNLESGVPARFNGSGSGTDFTLNIHPVEEEDAATYYCQHSRDLPFTFGSGTKLEIKGGGSGGGSGGGSEVQLVESGAEVVKPGASVKMSCKASGYPFTSYNIHWIKQTPGQGLEWIGAIYPGNGDTSYTQKFKVKATLTSDKSSSTAYMQLSSLTSEDSAVYFCARYGNYPSYAMDYWGQGTSVTVSSSRGMLDSDLHLSSKAQVFEHPHIQDAASQLPDDESLFFGDTGLSKNPIELVEGWFSSWKSSIASFFFIIGLIIGLFLVLRVGIHLCIKLKHTKKRQIYTDIEMNRLGK
Molecule B1 had an Antivirus vs Pseudovirus IC50 (pM) of 12 pM.

B2: soluble 7D10 (antibody, V domains shown)
VH: EVQLVESGAEVVKPGASVKMSCKASGYPFTSYNIHWIKQTPGQGLEWIGAIYPGNGDTSYTQKFKVKATLTSDKSSSTAYMQLSSLTSEDSAVYFCARYGNYPSYAMDYWGQGTSVTVSS
VL: DIVMTQSPASLTVSLGQRATISCRASKSVSASGYNYLHWYQQRPGQPPKLLIYLAFNLESGVPARFNGSGSGTDFTLNIHPVEEEDAATYYCQHSRDLPFTFGSGTKLEIK
In turn, B2 registered an IC50, neutralization of MERS CoV by the soluble antibody of 1.2 nM.

These data come from patent US20240254203A1.
